The text below walks through data of the supplement of paper PMC10567573.

B1: RSPH3 (parent)
chain: MTVKPAKAASLARNLAKRRRTYLG
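Further: lentivirally expressed fusions sorted by FACS into six bins by GFP to DsRed ratio, PSI derived from sequencing read proportions per bin multiplied by bin number.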

Variants of B1 are the subject of the series. The series is described as follows: protein stability index of a GFP-peptide fusion (GPS, HEK-293T) (PSI 1-6); higher = more stable. The note with it: c terminus: a fixed tail appended.
As for MTVKPAKEASLARNLAKRRRTYLG, the protein stability index is 3.25.
As for MTVKPAKTASLARNLAKRRRTYLG, the figure is 2.87; as for MTVKPAKHASLARNLAKRRRTYLG, 2.68; as for MTVKPAKGASLARNLAKRRRTYLG, 2.4.
As for MTVKPAKCASLARNLAKRRRTYLG, the figure is 2.52; as for MTVKPAKKASLARNLAKRRRTYLG, 3.23; as for MTVKPAKIASLARNLAKRRRTYLG, 2.17.
With MTVKPAKVASLARNLAKRRRTYLG the figure was 2.57; with MTVKPAKFASLARNLAKRRRTYLG, 2.03; with MTVKPAKSASLARNLAKRRRTYLG, 2.55.
Regarding MTVKPAKMASLARNLAKRRRTYLG, the protein stability index came to 2.62.
As to MTVKPAKRASLARNLAKRRRTYLG, the protein stability index was 2.3.
For the variant MTEKPAKAASLARNLAKRRRTYLG, the protein stability index amounted to 3.22.
As for MTKKPAKAASLARNLAKRRRTYLG, the figure is 3.29.
As for MTHKPAKAASLARNLAKRRRTYLG, the figure is 3.23; as for MTLKPAKAASLARNLAKRRRTYLG, 2.75.
As for MTDKPAKAASLARNLAKRRRTYLG, the figure is 3.02; as for MTVKPAKAASLARNLWKRRRTYLG, 1.82; as for MTVKPAKAASLARNLNKRRRTYLG, 2.72.
As for MTVKPAKAASLARNLQKRRRTYLG, the protein stability index is 2.19.
With MTVKPAKAASLARNLLKRRRTYLG the figure was 2.35; with MTVKPAKAASLARNLVKRRRTYLG, 3.28; with MTVKPAKAASLARNLKKRRRTYLG, 3.44.
Consider MTVKPAKAASLARNLDKRRRTYLG, for which the protein stability index amounted to 3.04.
With MTVKPAKAASLARNLPKRRRTYLG the figure was 3.42.
With MTVKPAKAASLARNLEKRRRTYLG the figure was 2.15; with MTVKPCKAASLARNLAKRRRTYLG, 2.72.
In the case of MTVKPPKAASLARNLAKRRRTYLG, the protein stability index amounted to 3.92.
With MTVKPVKAASLARNLAKRRRTYLG the figure was 2.89.
As for MTVKPHKAASLARNLAKRRRTYLG, the figure is 3.38.
As for MTVKPLKAASLARNLAKRRRTYLG, the figure is 1.63; as for MTVKPGKAASLARNLAKRRRTYLG, 3.13; as for MTVKPWKAASLARNLAKRRRTYLG, 1.91.
As to MTVVPAKAASLARNLAKRRRTYLG, the protein stability index is 2.6.
Turning to MTVWPAKAASLARNLAKRRRTYLG, the protein stability index came out at 2.25.
Consider MTVLPAKAASLARNLAKRRRTYLG, for which the protein stability index is 2.13.
With MTVEPAKAASLARNLAKRRRTYLG the figure was 2.1; with MTVYPAKAASLARNLAKRRRTYLG, 2.58.
With MTVKPAKAAALARNLAKRRRTYLG, the protein stability index was 2.86.
With MTVKPAKAAMLARNLAKRRRTYLG the figure was 2.02.
As for MTVKPAKAAWLARNLAKRRRTYLG, the figure is 2.47.
As for MTVKPAKAAPLARNLAKRRRTYLG, the figure is 3.1; as for MTVKPAKAARLARNLAKRRRTYLG, 3.92; as for MTVKPAKAAYLARNLAKRRRTYLG, 2.03.
Consider MTVKPAKAASLARNLAKRRRTYLN, for which the protein stability index is 3.18.
As for MTVKPAKAASLARNLAKRRRTYLM, the figure is 2.38; as for MTVKPAKAASLARNLAKRRRTYLS, 3.15; as for MTVKPAKAASLARNLAKRRRTYLI, 2.35.
With MTVKPAKAASLARNLAKRRRTYLL the figure was 2.3.
For MTVKPAKAASLARNLAKRRRTYLK, the protein stability index is 2.68.
With MTVKPAKAASLARNLAKSRRTYLG the figure was 2.96; with MTVKPAKAASLARNLAKQRRTYLG, 2.52.
As for MTVKPAKAASLARNLAKARRTYLG, the figure is 3.3.
As for MTVKPAKAASLARNLAKDRRTYLG, the figure is 3; as for MTVKPAKAASLARNLAKERRTYLG, 3.33; as for MTVKPAKAASLARNLAKPRRTYLG, 2.38.
MTVKPAKAASLARNLAKIRRTYLG: the protein stability index came to 2.63.
With MTVKPAKAASLARNLAKMRRTYLG the figure was 2.38; with MTVKPAKAASLARNLAKVRRTYLG, 2.91.
With MTVKPAKAASLARNLAKRRRTYYG the figure was 3.
As for MTVKPAKAASLARNLAKRRRTYKG, the figure is 3.5; as for MTVKPAKAASLARNLAKRRRTYHG, 3.9; as for MTVKPAKAASLARNLAKRRRTYDG, 3.71.
As for MTVKPAKAASLARNLAKRRRTYIG, the protein stability index amounted to 4.26.
In the case of MTVKPAKAASLARNLAKRRRTYFG, the protein stability index is 3.2.
As for MTVKPAKAASLARNLAKRRRTYNG, the figure is 3.5; as for MTVKPAKAASLARNLAKRRRTYMG, 3.53.
Take MTVKPAKAASLARNLAKRRRTYPG: the protein stability index was determined as 3.42.
With MTVKPAKAASLARNLAKRRRTYCG the figure was 3.28; with MNVKPAKAASLARNLAKRRRTYLG, 3.75.
As for MCVKPAKAASLARNLAKRRRTYLG, the figure is 2.16; as for MHVKPAKAASLARNLAKRRRTYLG, 3.44; as for MYVKPAKAASLARNLAKRRRTYLG, 2.36.
As for MRVKPAKAASLARNLAKRRRTYLG, the figure is 2.74.
Take MDVKPAKAASLARNLAKRRRTYLG: the protein stability index turned out to be 2.88.
With MTVKPAKAASLARNLAKRRRTPLG the figure was 3.26; with MTVKPAKAASLARNLAKRRRTALG, 3.81; with MTVKPAKAASLARNLAKRRRTKLG, 3.85.
As for MTVKPAKAASLARNLAKRRRTRLG, the figure is 3.03.
With MTVKPAKAASLARNLAKRRRTDLG the figure was 3.31; with MTVKPAKAASLARNLAKRRFTYLG, 1.96; with MTVKPAKAASLARNLAKRRQTYLG, 3.83.
As to MTVKPAKAASLARNLAKRRSTYLG, the protein stability index amounted to 2.61.
With MTVKPAKAASLARNLAKRRVTYLG the figure was 1.63; with MTVKPAKAASLARNLAKRRNTYLG, 2.94; with MTVKPAKAASLARNLAKRRDTYLG, 3.08.
As to MTVKPAKAASLARNLAKRRPTYLG, the protein stability index was 2.81.
As for MTVKPAKAASLARNLAKRRITYLG, the figure is 2.17; as for MTVKPAKAASLARNLAKRRTTYLG, 2.61.
Take MTVKEAKAASLARNLAKRRRTYLG: the protein stability index stood at 2.52.
As for MTVKHAKAASLARNLAKRRRTYLG, the protein stability index was found to be 2.91.
As for MTVKKAKAASLARNLAKRRRTYLG, the figure is 2.92; as for MTVKGAKAASLARNLAKRRRTYLG, 2.75.
With MTVKNAKAASLARNLAKRRRTYLG the figure was 3.24.
